For data set [1], the system named is HeLa Kyoto. The data set can be described thus: solubility in G1/S (NP-40 vs SDS abundance) (log2 ratio); higher = more soluble. The following applies: cell cycle stage: G1/S.
Data set [2] relates to HeLa Kyoto. Nature of the data set: solubility change mitosis vs G1/S (difference of NP-40 vs SDS log2 ratios) (log2 ratio difference); higher = more soluble in mitosis.
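Wherever solubility change mitosis vs G1/S (difference of NP-40 vs SDS log2 ratios) is given: synchronized HeLa Kyoto cells (double thymidine block for G1/S, nocodazole release for mitosis), protein amounts in NP-40 versus SDS lysates quantified by mass spectrometry, three biological replicates.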
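Wherever solubility in G1/S (NP-40 vs SDS abundance) is given: HeLa Kyoto cells arrested at G1/S by double thymidine block, proteins quantified by TMT10plex mass spectrometry in mild NP-40 versus SDS extracts, three biological replicates.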

Take “MSVDKAELCGSLLTWLQTFHVPSPCASPQDLSSGLAVAYVLNQIDPSWFNEAWLQGISEDPGPNWKLKVSNLKMVLRSLVEYSQDVLAHPVSEEHLPDVSLIGEFSDPAELGKLLQLVLGCAISCEKKQDHIQRIMTLEESVQHVVMEAIQELMTKDTPDSLSPETYGNFDSQSRRYYFLSEEAEEGDELQQRCLDLERQLMLLSEEKQSLAQENAGLRERMGRPEGEGTPGLTAKKLLLLQSQLEQLQEENFRLESGREDERLRCAELEREVAELQHRNQALTSLAQEAQALKDEMDELRQSSERAGQLEATLTSCRRRLGELRELRRQVRQLEERNAGHAERTRQLEDELRRAGSLRAQLEAQRRQVQELQGQRQEEAMKAEKWLFECRNLEEKYESVTKEKERLLAERDSLREANEELRCAQLQPRGLTQADPSLDPTSTPVDNLAAEILPAELRETLLRLQLENKRLCRQEAADRERQEELQRHLEDANRARHGLETQHRLNQQQLSELRAQVEDLQKALQEQGGKTEDAISILLKRKLEEHLQKLHEADLELQRKREYIEELEPPTDSSTARRIEELQHNLQKKDADLRAMEERYRRYVDKARMVMQTMEPKQRPAAGAPPELHSLRTQLRERDVRIRHLEMDFEKSRSQREQEEKLLISAWYNMGMALQQRAGEERAPAHAQSFLAQQRLATNSRRGPLGRLASLNLRPTDKH [HOOK2]”: the “solubility in G1/S (log2)” value in the data set with HeLa Kyoto [1] amounted to 0.231. Further, the “solubility change mitosis (log2)” value with HeLa Kyoto [2] was -0.0619.

Take “MAGLGLGSAVPVWLAEDDLGCIICQGLLDWPATLPCGHSFCRHCLEALWGARDARRWACPTCRQGAAQQPHLRKNTLLQDLADKYRRAAREIQAGSDPAHCPCPGSSSLSSAAARPRRRPELQRVAVEKSITEVAQELTELVEHLVDIVRSLQNQRPLSESGPDNELSILGKAFSSGVDLSMASPKLVTSDTAAGKIRDILHDLEEIQEKLQESVTWKEAPEAQMQGELLEAPSSSSCPLPDQSHPALRRASRFAQWAIHPTFNLKSLSCSLEVSKDSRTVTVSHRPQPYRWSCERFSTSQVLCSQALSSGKHYWEVDTRNCSHWAVGVASWEMSRDQVLGRTMDSCCVEWKGTSQLSAWHMVKETVLGSDRPGVVGIWLNLEEGKLAFYSVDNQEKLLYECTISASSPLYPAFWLYGLHPGNYLIIKQVKV [RNF135]”: the “solubility in G1/S (log2)” value in the data set on HeLa Kyoto [1] came out at 0.0392. For the same substance, in the data set with HeLa Kyoto [2], the “solubility change mitosis (log2)” value is -0.147.

Take “MADAAATAGAGGSGTRSGSKQSTNPADNYHLARRRTLQVVVSSLLTEAGFESAEKASVETLTEMLQSYISEIGRSAKSYCEHTARTQPTLSDIVVTLVEMGFNVDTLPAYAKRSQRMVITAPPVTNQPVTPKALTAGQNRPHPPHIPSHFPEFPDPHTYIKTPTYREPVSDYQVLREKAASQRRDVERALTRFMAKTGETQSLFKDDVSTFPLIAARPFTIPYLTALLPSELEMQQMEETDSSEQDEQTDTENLALHISMEDSGAEKENTSVLQQNPSLSGSRNGEENIIDNPYLRPVKKPKIRRKKSLS [TAF8]”: the “solubility in G1/S (log2)” value with HeLa Kyoto [1] amounted to 0.116. Also, the “solubility change mitosis (log2)” value with HeLa Kyoto [2] was determined as 0.0206.

For the substance “MRFAWTVLLLGPLQLCALVHCAPPAAGQQQPPREPPAAPGAWRQQIQWENNGQVFSLLSLGSQYQPQRRRDPGAAVPGAANASAQQPRTPILLIRDNRTAAARTRTAGSSGVTAGRPRPTARHWFQAGYSTSRAREAGASRAENQTAPGEVPALSNLRPPSRVDGMVGDDPYNPYKYSDDNPYYNYYDTYERPRPGGRYRPGYGTGYFQYGLPDLVADPYYIQASTYVQKMSMYNLRCAAEENCLASTAYRADVRDYDHRVLLRFPQRVKNQGTSDFLPSRPRYSWEWHSCHQHYHSMDEFSHYDLLDANTQRRVAEGHKASFCLEDTSCDYGYHRRFACTAHTQGLSPGCYDTYGADIDCQWIDITDVKPGNYILKVSVNPSYLVPESDYTNNVVRCDIRYTGHHAYASGCTISPY [LOX]”, the “solubility in G1/S (log2)” value in the data set on HeLa Kyoto [1] is -0.354. In the data set with HeLa Kyoto [2], the “solubility change mitosis (log2)” value is 0.257.

For “MLPEAGSLWLLKLLRDIQLAQFYWPILEELNVTRPEHFDFVKPEDLDGIGMGRPAQRRLSEALKRLRSGPKSKNWVYKILGGFAPEHKEPTLPSDSPRHLPEPEGGLKCLIPEGAVCRGELLGSGCFGVVHRGLWTLPSGKSVPVAVKSLRVGPEGPMGTELGDFLREVSVMMNLEHPHVLRLHGLVLGQPLQMVMELAPLGSLHARLTAPAPTPPLLVALLCLFLRQLAGAMAYLGARGLVHRDLATRNLLLASPRTIKVADFGLVRPLGGARGRYVMGGPRPIPYAWCAPESLRHGAFSSASDVWMFGVTLWEMFSGGEEPWAGVPPYLILQRLEDRARLPRPPLCSRALYSLALRCWAPHPADRPSFSHLEGLLQEAGPSEACCVRDVTEPGALRMETGDPITVIEGSSSFHSPDSTIWKGQNGRTFKVGSFPASAVTLADAGGLPATRPVHRGTPARGDQHPGSIDGDRKKANLWDAPPARGQRRNMPLERMKGISRSLESVLSLGPRPTGGGSSPPEIRQARAVPQGPPGLPPRPPLSSSSPQPSQPSRERLPWPKRKPPHNHPMGMPGARKAAALSGGLLSDPELQRKIMEVELSVHGVTHQECQTALGATGGDVVSAIRNLKVDQLFHLSSRSRADCWRILEHYQWDLSAASRYVLARP [TNK1]”, in the data set with HeLa Kyoto [1], the “solubility in G1/S (log2)” value was determined as 0.0271. For the same substance, the “solubility change mitosis (log2)” value in the data set with HeLa Kyoto [2] is -0.0434.

As for “MAATLILEPAGRCCWDEPVRIAVRGLAPEQPVTLRASLRDEKGALFQAHARYRADTLGELDLERAPALGGSFAGLEPMGLLWALEPEKPLVRLVKRDVRTPLAVELEVLDGHDPDPGRLLCRVRHERYFLPPGVRREPVRAGRVRGTLFLPPEPGPFPGIVDMFGTGGGLLEYRASLLAGKGFAVMALAYYNYEDLPKTMETLHLEYFEEAVNYLLSHPEVKGPGVGLLGISKGGELCLSMASFLKGITAAVVINGSVANVGGTLRYKGETLPPVGVNRNRIKVTKDGYADIVDVLNSPLEGPDQKSFIPVERAESTFLFLVGQDDHNWKSEFYANEACKRLQAHGRRKPQIICYPETGHYIEPPYFPLCRASLHALVGSPIIWGGEPRAHAMAQVDAWKQLQTFFHKHLGGHEGTIPSKV [ACOT1]”, the “solubility in G1/S (log2)” value in the data set on HeLa Kyoto [1] is 0.138. The “solubility change mitosis (log2)” value in the data set with HeLa Kyoto [2] was -0.000552.

On to “MRRKGRCHRGSAARHPSSPCSVKHSPTRETLTYAQAQRMVEIEIEGRLHRISIFDPLEIILEDDLTAQEMSECNSNKENSERPPVCLRTKRHKNNRVKKKNEALPSAHGTPASASALPEPKVRIVEYSPPSAPRRPPVYYKFIEKSAEELDNEVEYDMDEEDYAWLEIVNEKRKGDCVPAVSQSMFEFLMDRFEKESHCENQKQGEQQSLIDEDAVCCICMDGECQNSNVILFCDMCNLAVHQECYGVPYIPEGQWLCRHCLQSRARPADCVLCPNKGGAFKKTDDDRWGHVVCALWIPEVGFANTVFIEPIDGVRNIPPARWKLTCYLCKQKGVGACIQCHKANCYTAFHVTCAQKAGLYMKMEPVKELTGGGTTFSVRKTAYCDVHTPPGCTRRPLNIYGDVEMKNGVCRKESSVKTVRSTSKVRKKAKKAKKALAEPCAVLPTVCAPYIPPQRLNRIANQVAIQRKKQFVERAHSYWLLKRLSRNGAPLLRRLQSSLQSQRSSQQRENDEEMKAAKEKLKYWQRLRHDLERARLLIELLRKREKLKREQVKVEQVAMELRLTPLTVLLRSVLDQLQDKDPARIFAQPVSLKEVPDYLDHIKHPMDFATMRKRLEAQGYKNLHEFEEDFDLIIDNCMKYNARDTVFYRAAVRLRDQGGVVLRQARREVDSIGLEEASGMHLPERPAAAPRRPFSWEDVDRLLDPANRAHLGLEEQLRELLDMLDLTCAMKSSGSRSKRAKLLKKEIALLRNKLSQQHSQPLPTGPGLEGFEEDGAALGPEAGEEVLPRLETLLQPRKRSRSTCGDSEVEEESPGKRLDAGLTNGFGGARSEQEPGGGLGRKATPRRRCASESSISSSNSPLCDSSFNAPKCGRGKPALVRRHTLEDRSELISCIENGNYAKAARIAAEVGQSSMWISTDAAASVLEPLKVVWAKCSGYPSYPALIIDPKMPRVPGHHNGVTIPAPPLDVLKIGEHMQTKSDEKLFLVLFFDNKRSWQWLPKSKMVPLGIDETIDKLKMMEGRNSSIRKAVRIAFDRAMNHLSRVHGEPTSDLSDID [BRD1]”, for which the “solubility in G1/S (log2)” value with HeLa Kyoto [1] was -0.879. Further, the “solubility change mitosis (log2)” value in the data set on HeLa Kyoto [2] came to 0.194.

For the substance “MDDIADRMRMDAGEVTLVNHNSVFKTHLLPQTGFPEDQLSLSDQQILSSRQGHLDRSFTCSTRSAAYNPSYYSDNPSSDSFLGSGDLRTFGQSANGQWRNSTPSSSSSLQKSRNSRSLYLETRKTSSGLSNSFAGKSNHHCHVSAYEKSFPIKPVPSPSWSGSCRRSLLSPKKTQRRHVSTAEETVQEEEREIYRQLLQMVTGKQFTIAKPTTHFPLHLSRCLSSSKNTLKDSLFKNGNSCASQIIGSDTSSSGSASILTNQEQLSHSVYSLSSYTPDVAFGSKDSGTLHHPHHHHSVPHQPDNLAASNTQSEGSDSVILLKVKDSQTPTPSSTFFQAELWIKELTSVYDSRARERLRQIEEQKALALQLQNQRLQEREHSVHDSVELHLRVPLEKEIPVTVVQETQKKGHKLTDSEDEFPEITEEMEKEIKNVFRNGNQDEVLSEAFRLTITRKDIQTLNHLNWLNDEIINFYMNMLMERSKEKGLPSVHAFNTFFFTKLKTAGYQAVKRWTKKVDVFSVDILLVPIHLGVHWCLAVVDFRKKNITYYDSMGGINNEACRILLQYLKQESIDKKRKEFDTNGWQLFSKKSQEIPQQMNGSDCGMFACKYADCITKDRPINFTQQHMPYFRKRMVWEILHRKLL [SENP1]”, the “solubility in G1/S (log2)” value in the data set on HeLa Kyoto [1] was -0.531. Moreover, the “solubility change mitosis (log2)” value with HeLa Kyoto [2] is 0.402.

Consider “MGSAFERVVRRVVQELDHGGEFIPVTSLQSSTGFQPYCLVVRKPSSSWFWKPRYKCVNLSIKDILEPDAAEPDVQRGRSFHFYDAMDGQIQGSVELAAPGQAKIAGGAAVSDSSSTSMNVYSLSVDPNTWQTLLHERHLRQPEHKVLQQLRSRGDNVYVVTEVLQTQKEVEVTRTHKREGSGRFSLPGATCLQGEGQGHLSQKKTVTIPSGSTLAFRVAQLVIDSDLDVLLFPDKKQRTFQPPATGHKRSTSEGAWPQLPSGLSMMRCLHNFLTDGVPAEGAFTEDFQGLRAEVETISKELELLDRELCQLLLEGLEGVLRDQLALRALEEALEQGQSLGPVEPLDGPAGAVLECLVLSSGMLVPELAIPVVYLLGALTMLSETQHKLLAEALESQTLLGPLELVGSLLEQSAPWQERSTMSLPPGLLGNSWGEGAPAWVLLDECGLELGEDTPHVCWEPQAQGRMCALYASLALLSGLSQEPH [GSDMD]”, for which, in the data set on HeLa Kyoto [1], the “solubility in G1/S (log2)” value is 0.121. Further, in the data set with HeLa Kyoto [2], the “solubility change mitosis (log2)” value was -0.218.

As for “MPPKKDVPVKKPAGPSISKPAAKPAAAGAPPAKTKAEPAVPQAPQKTQEPPVDLSKVVIEFNKDQLEEFKEAFELFDRVGDGKILYSQCGDVMRALGQNPTNAEVLKVLGNPKSDELKSRRVDFETFLPMLQAVAKNRGQGTYEDYLEGFRVFDKEGNGKVMGAELRHVLTTLGEKMTEEEVETVLAGHEDSNGCINYEAFLKHILSV [MYL6B]”, the “solubility in G1/S (log2)” value in the data set with HeLa Kyoto [1] was -0.063. In addition, in the data set on HeLa Kyoto [2], the “solubility change mitosis (log2)” value was 0.317.

As for “MSTAMNFGTKSFQPRPPDKGSFPLDHLGECKSFKEKFMKCLHNNNFENALCRKESKEYLECRMERKLMLQEPLEKLGFGDLTSGKSEAKK [COX19]”, the “solubility in G1/S (log2)” value in the data set with HeLa Kyoto [1] came to 0.00408. For the same substance, the “solubility change mitosis (log2)” value in the data set with HeLa Kyoto [2] is 0.143.

As to “MASNFKKANMASSSQRKRMSPKPELTEEQKQEIREAFDLFDADGTGTIDVKELKVAMRALGFEPKKEEIKKMISEIDKEGTGKMNFGDFLTVMTQKMSEKDTKEEILKAFKLFDDDETGKISFKNLKRVAKELGENLTDEELQEMIDEADRDGDGEVSEQEFLRIMKKTSLY [CETN2]”, the “solubility in G1/S (log2)” value in the data set with HeLa Kyoto [1] was 0.117. Moreover, the “solubility change mitosis (log2)” value in the data set on HeLa Kyoto [2] stood at 0.68.

RLF: in the data set with HeLa Kyoto [1], the “solubility in G1/S (log2)” value was -0.887. Moreover, the “solubility change mitosis (log2)” value with HeLa Kyoto [2] amounted to 0.617.

These data come from the supplement of paper PMC5998384.
